Laboratory results taken from US20200317817A1 (XOMA US, published 2020).

Tests used:
[1] = target: T1, human PTH1R on Saos-2 cells (endogenous) (human, UniProt Q03431 27-593); assay: cell-based or functional assay
T1 sequence (looked up): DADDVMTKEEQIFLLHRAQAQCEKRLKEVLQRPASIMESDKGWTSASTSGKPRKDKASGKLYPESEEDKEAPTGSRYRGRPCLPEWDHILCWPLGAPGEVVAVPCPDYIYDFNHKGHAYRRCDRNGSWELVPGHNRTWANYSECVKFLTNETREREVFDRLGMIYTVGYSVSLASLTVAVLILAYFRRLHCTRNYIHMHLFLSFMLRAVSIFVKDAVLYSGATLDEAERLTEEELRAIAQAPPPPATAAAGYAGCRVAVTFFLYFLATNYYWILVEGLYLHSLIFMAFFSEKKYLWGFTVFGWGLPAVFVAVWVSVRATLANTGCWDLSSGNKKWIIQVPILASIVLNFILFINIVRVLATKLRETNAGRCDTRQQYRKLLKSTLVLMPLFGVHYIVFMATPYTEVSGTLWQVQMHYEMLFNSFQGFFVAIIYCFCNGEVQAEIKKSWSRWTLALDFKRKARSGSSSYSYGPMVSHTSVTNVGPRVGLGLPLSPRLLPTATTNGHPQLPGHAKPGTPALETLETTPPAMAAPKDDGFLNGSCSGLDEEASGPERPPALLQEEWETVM

[2] = target: T2, human PTH1R overexpressed on CHO cells (human, UniProt Q03431 27-593); assay: cell-based or functional assay
T2 sequence (looked up): T1 sequence (looked up)

[3] = target: T3, mouse PTH1R overexpressed on CHO cells (mouse, UniProt P41593 27-591); assay: cell-based or functional assay
T3 sequence (looked up): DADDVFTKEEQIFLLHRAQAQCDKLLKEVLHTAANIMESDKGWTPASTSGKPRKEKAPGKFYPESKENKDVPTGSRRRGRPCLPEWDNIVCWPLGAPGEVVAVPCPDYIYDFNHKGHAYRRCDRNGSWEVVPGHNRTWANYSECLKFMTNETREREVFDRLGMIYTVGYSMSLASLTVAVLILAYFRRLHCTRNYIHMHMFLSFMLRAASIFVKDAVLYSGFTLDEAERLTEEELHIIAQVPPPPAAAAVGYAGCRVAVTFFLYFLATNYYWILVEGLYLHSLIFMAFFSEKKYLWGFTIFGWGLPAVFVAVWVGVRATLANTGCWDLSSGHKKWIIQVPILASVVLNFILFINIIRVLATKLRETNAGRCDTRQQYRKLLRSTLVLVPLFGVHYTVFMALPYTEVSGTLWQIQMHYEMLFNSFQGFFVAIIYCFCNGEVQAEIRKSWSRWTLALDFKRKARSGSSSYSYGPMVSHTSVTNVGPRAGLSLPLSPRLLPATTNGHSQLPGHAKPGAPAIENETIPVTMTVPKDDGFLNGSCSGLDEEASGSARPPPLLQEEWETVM

[4] = target: T4, recombinant N-terminal extracellular domain of the human PTH1R receptor (human, UniProt Q03431 27-188, limits assumed); assay: SPR, IgG captured, ECD injected
T4 construct: domain: N-terminal extracellular domain; Bought reagent; also called N-ECD PTH1R; PTH1R N-terminal ECD
T4 sequence (looked up): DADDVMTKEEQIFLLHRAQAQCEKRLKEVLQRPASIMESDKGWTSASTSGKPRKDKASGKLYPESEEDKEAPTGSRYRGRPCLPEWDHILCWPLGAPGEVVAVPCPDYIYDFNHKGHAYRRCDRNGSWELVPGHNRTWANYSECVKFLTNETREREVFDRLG
Outline: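 Antibodies (0.5 μg/mL) captured on anti-human IgG-Fc chip to 100–200 RU in HBS-EP+ with 2.5 mg/mL BSA; receptor ECD injected at 30 μL/minute for 240 s, 360 s dissociation, 3M MgCl regeneration. Double-referenced data fit globally for ka and kd; KD=kd/kₐ.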

[5] = target: T5, human PTH2R overexpressed on CHO cells (human, UniProt P49190 25-550); assay: flow cytometry on CHO cells overexpressing human PTH2R, 1 hr at 4 C, APC anti-human IgG
T5 construct: whole, on cells; also called CHO human PTH2R
T5 sequence (P49190 25-550): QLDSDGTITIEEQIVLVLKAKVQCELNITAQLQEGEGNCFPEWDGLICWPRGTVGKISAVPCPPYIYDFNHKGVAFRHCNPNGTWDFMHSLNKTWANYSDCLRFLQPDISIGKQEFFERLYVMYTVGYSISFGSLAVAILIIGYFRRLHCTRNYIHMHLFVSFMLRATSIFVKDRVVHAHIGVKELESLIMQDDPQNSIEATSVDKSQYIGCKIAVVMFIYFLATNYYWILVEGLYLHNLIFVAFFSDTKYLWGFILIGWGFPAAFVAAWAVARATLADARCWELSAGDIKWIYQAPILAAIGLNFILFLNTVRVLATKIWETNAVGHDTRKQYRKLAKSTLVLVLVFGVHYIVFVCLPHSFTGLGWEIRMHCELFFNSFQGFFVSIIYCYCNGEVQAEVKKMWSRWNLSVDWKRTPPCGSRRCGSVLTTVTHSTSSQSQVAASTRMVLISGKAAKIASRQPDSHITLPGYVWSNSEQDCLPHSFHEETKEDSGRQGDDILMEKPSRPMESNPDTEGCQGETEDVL
Procedure: Increasing concentrations of anti-PTH1R antibodies were added to CHO cells overexpressing human PTH2R and incubated for 1 hr at 4° C. (FIG. 8). Cells were washed twice with FACS Buffer and antibody binding was detected with anti-human IgG APC. […] Anti-KLH.G2 was used a negative control for binding.
PTH2R has a 51% homology to PTH1R. […] Following two washes, cells were incubated with Allophycocyanin (APC) AffiniPure F(ab′)₂ Fragment Goat Anti-Human IgG (H+L) (Jackson ImmunoResearch, West Grove, Pa.) for 20 minutes at 4° C. Cells were washed twice and resuspended in FACS Buffer. Samples were acquired using BD Cytometer (BD Biosciences, San Jose, Calif.) and data were analyzed using FlowJo (FlowJo, LLC, Ashland, Oreg.) and Prism (GraphPad Software, La Jolla, Calif.). […] Anti-KLH.G2 was used a negative control for binding.

[6] = target: T6, human PTH1R overexpressed on Saos-2 cells (human, UniProt Q03431 27-593); assay: flow cytometry on Saos-2 cells overexpressing human PTH1R, antibody alone, PE anti-human IgG
T6 construct: whole, on cells; also called Saos-2 human PTH1R cells
T6 sequence (looked up): T1 sequence (looked up)

[7] = target: T6, human PTH1R overexpressed on Saos-2 …; assay: flow cytometry on Saos-2 cells overexpressing human PTH1R, in the presence of 1 uM PTH, PE anti-human IgG
[8] = target: T6, human PTH1R overexpressed on Saos-2 …; assay: flow cytometry on Saos-2 cells overexpressing human PTH1R, in the presence of 3 uM PTHrP, PE anti-human IgG
Text: Antibody binding was detected with R-Phycoerythrin anti-human IgG.

B1: XPA.85.328 (antibody, V domains shown)
VH: QMQLVQSGAEVKKPGSSVKVSCKASGGTFSSYAISWVRQAPGQGLEWMGGIIPIFGTANYAQKFQGRVTITADESTSTAYMELSSLRSEDTAVYYCARGYVVARLWGQGTLVTVSS
VL: DVVMTQTPLSLSVTPGQPASISCKSSQSLLHIDGKTYLYWYLQKSGQSPQLLIYEVSNRFSGVPDTFSGSGSGTDFTLKISRVEAEDVGVYYCMQSLHFPITFGQGTRLEIK
notes: IgG; also called Ab328
EC50 of antibody, neutralization of M-CSF production induced by 12.5 nM PTHrP (1-36) [1]: 6.6 nM | fold shift of the PTHrP (1-36) dose response, M-CSF secretion by Saos-2 cells, 40 µg/mL antibody [1]: > 200 fold | IC50, inhibition of PTH(1-34)-induced cAMP accumulation [2]: 11.8 nM | IC50, inhibition of PTHrP(1-34)-induced cAMP accumulation [2]: 7.06 nM | IC50, inhibition of PTHrP(1-34)-induced cAMP accumulation [3]: 2.23 nM | Kd [4]: 0.32 nM | koff [4]: 0.00018 s⁻¹ | kon [4]: 560000 M⁻¹ s⁻¹ | binding result [5]: no binding (tested: about 160 nM) | EC50 [6]: 4.4 nM | EC50 [7]: 67.4 nM | EC50 [8]: 465 nM
